Source: the supplement of paper PMC9112550, “Optimization of the antimicrobial peptide Bac7 by deep mutational scanning” (BMC Biology, 2022)

Tested on: Escherichia coli TOP10
Assay: shrunken log2 fold change of peptide-encoding DNA abundance (4.5 h post-induction vs induction); higher = less antimicrobial activity (less host growth inhibition)
Conditions: time post-induction: 4.5 h; library: site-saturation at positions 5, 18, 19, 20
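Note: peptides expressed intracellularly from a pBAD plasmid library in pooled LB shake-flask culture, induced with 0.3% L-arabinose, DNA abundance read by NGS, three biological replicates, DESeq2 with apeglm shrinkage.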

| Sequence | shrunken log2 fold change |
| --- | --- |
| RRIRFRPPRLPRPRPRPFNYPRP | -0.183 |
| RRIRCRPPRLPRPRPRPMATPRP | 0.0993 |
| RRIRHRPPRLPRPRPRPSIVPRP | -0.0474 |
| RRIRERPPRLPRPRPRPRLAPRP | 0.269 |
| RRIRSRPPRLPRPRPRPFIQPRP | -0.0991 |
| RRIRGRPPRLPRPRPRPTKIPRP | 0.462 |
| RRIRTRPPRLPRPRPRPKMNPRP | -0.558 |
| RRIRHRPPRLPRPRPRPEHSPRP | -0.179 |
| RRIRQRPPRLPRPRPRPHNPPRP | -0.33 |
| RRIRWRPPRLPRPRPRPCTGPRP | -0.0547 |
| RRIRWRPPRLPRPRPRPYLMPRP | -0.319 |
| RRIRFRPPRLPRPRPRPEHNPRP | -0.489 |
| RRIRPRPPRLPRPRPRPAAHPRP | 0.0385 |
| RRIRIRPPRLPRPRPRPAVWPRP | 0.141 |
| RRIRWRPPRLPRPRPRPMNDPRP | -0.0845 |
| RRIRMRPPRLPRPRPRPRQWPRP | 0.0789 |
| RRIRNRPPRLPRPRPRPQGSPRP | -0.0968 |
| RRIRRRPPRLPRPRPRPATEPRP | 0.421 |
| RRIRHRPPRLPRPRPRPIILPRP | -0.113 |
| RRIRFRPPRLPRPRPRPYDVPRP | -0.185 |
| RRIRGRPPRLPRPRPRPWFTPRP | -0.221 |
| RRIRSRPPRLPRPRPRPNMWPRP | -0.311 |
| RRIRIRPPRLPRPRPRPQHTPRP | -1 |

| Sequence | shrunken log2 fold change |
| --- | --- |
| RRIRARPPRLPRPRPRPIAQPRP | 0.459 |
| RRIRQRPPRLPRPRPRPVAFPRP | -0.0706 |
| RRIRCRPPRLPRPRPRPKTLPRP | -0.246 |
| RRIRTRPPRLPRPRPRPTANPRP | 0.0721 |
| RRIRFRPPRLPRPRPRPDFMPRP | -0.27 |
| RRIRDRPPRLPRPRPRPNGYPRP | -0.36 |
| RRIRPRPPRLPRPRPRPQNLPRP | -0.0683 |
| RRIRMRPPRLPRPRPRPASFPRP | 0.126 |
| RRIRARPPRLPRPRPRPFFHPRP | -0.0215 |
| RRIRVRPPRLPRPRPRPLINPRP | -0.354 |
| RRIRVRPPRLPRPRPRPEYTPRP | -0.0361 |
| RRIRWRPPRLPRPRPRPEQGPRP | -0.00277 |
| RRIRGRPPRLPRPRPRPELMPRP | 0.853 |
| RRIRQRPPRLPRPRPRPISIPRP | -0.93 |
| RRIRMRPPRLPRPRPRPWNMPRP | -0.0747 |
| RRIRKRPPRLPRPRPRPGFRPRP | 0.942 |
| RRIRQRPPRLPRPRPRPEENPRP | 0.00965 |
| RRIRCRPPRLPRPRPRPLAAPRP | 0.351 |
| RRIRFRPPRLPRPRPRPPLIPRP | -0.182 |
| RRIRFRPPRLPRPRPRPDNYPRP | -0.12 |
| RRIRHRPPRLPRPRPRPVERPRP | -0.00973 |
| RRIRRRPPRLPRPRPRPVTGPRP | 0.0301 |
| RRIRDRPPRLPRPRPRPIFIPRP | -0.345 |

| Sequence | shrunken log2 fold change |
| --- | --- |
| RRIRTRPPRLPRPRPRPEYQPRP | 0.066 |
| RRIRRRPPRLPRPRPRPYLYPRP | -0.362 |
| RRIRIRPPRLPRPRPRPCQCPRP | -1.17 |
| RRIRPRPPRLPRPRPRPYQCPRP | -0.0702 |
| RRIRDRPPRLPRPRPRPYFAPRP | -0.413 |
| RRIRARPPRLPRPRPRPHIWPRP | -0.187 |
| RRIRCRPPRLPRPRPRPPLNPRP | 0.212 |
| RRIRGRPPRLPRPRPRPNGTPRP | 0.54 |
| RRIRVRPPRLPRPRPRPMECPRP | -0.00192 |
| RRIRYRPPRLPRPRPRPEGTPRP | -0.0176 |
| RRIRTRPPRLPRPRPRPPDTPRP | 0.0652 |
| RRIRHRPPRLPRPRPRPPFPPRP | 0.0224 |
| RRIRFRPPRLPRPRPRPEAMPRP | -0.000462 |
| RRIRLRPPRLPRPRPRPYPNPRP | -1.27 |
| RRIRPRPPRLPRPRPRPYLKPRP | -0.259 |
| RRIRCRPPRLPRPRPRPTNPPRP | -0.429 |
| RRIRQRPPRLPRPRPRPMVIPRP | -0.105 |
| RRIRYRPPRLPRPRPRPDCWPRP | -0.105 |
| RRIRCRPPRLPRPRPRPFQYPRP | -1.21 |
| RRIRRRPPRLPRPRPRPHGLPRP | 0.217 |
| RRIRWRPPRLPRPRPRPRPNPRP | 0.273 |
| RRIRTRPPRLPRPRPRPDRHPRP | -0.143 |
| RRIRWRPPRLPRPRPRPHDAPRP | -0.145 |

| Sequence | shrunken log2 fold change |
| --- | --- |
| RRIRKRPPRLPRPRPRPPHDPRP | 0.559 |
| RRIRTRPPRLPRPRPRPNPTPRP | 0.207 |
| RRIRTRPPRLPRPRPRPGTWPRP | -0.0246 |
| RRIRSRPPRLPRPRPRPDPSPRP | 0.0173 |
| RRIRRRPPRLPRPRPRPPEQPRP | 0.033 |
| RRIRLRPPRLPRPRPRPFPAPRP | -0.094 |
| RRIRQRPPRLPRPRPRPRVPPRP | 0.339 |
| RRIRRRPPRLPRPRPRPGSRPRP | 0.155 |
| RRIRYRPPRLPRPRPRPNRFPRP | -0.00943 |
| RRIRDRPPRLPRPRPRPHKEPRP | -0.00521 |
| RRIRPRPPRLPRPRPRPFAAPRP | 0.227 |
| RRIRQRPPRLPRPRPRPSSDPRP | -0.609 |
| RRIRGRPPRLPRPRPRPQFCPRP | 0.719 |
| RRIRARPPRLPRPRPRPYENPRP | -0.0975 |
| RRIRYRPPRLPRPRPRPIVYPRP | -1.23 |
| RRIRTRPPRLPRPRPRPMTNPRP | -0.138 |
| RRIRKRPPRLPRPRPRPVNIPRP | -0.0139 |
| RRIRGRPPRLPRPRPRPHADPRP | 1.68 |
| RRIRVRPPRLPRPRPRPWGTPRP | -0.402 |
| RRIRDRPPRLPRPRPRPFAQPRP | 0.0821 |
| RRIRHRPPRLPRPRPRPNVMPRP | 0.0213 |
| RRIRYRPPRLPRPRPRPYVHPRP | -1.05 |
